± gives the uncertainty stated by the source.
Experiment: protein stability index of a GFP-peptide fusion (yeast GPS) (PSI 1-4); higher = more stable; sorted into four equal gates, so the index is relative within each strain
Procedure, shortened: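 Mid-log yeast cultures in leucine-free medium, carrying a pooled plasmid library, were sorted into four equal gates by their GFP/Cherry fluorescence ratio. Each plasmid expressed Cherry along with GFP fused upstream of a tiled 17-residue yeast protein peptide. Plasmids recovered from each gate were PCR-amplified and Illumina-sequenced, with reads assigned to strains by barcodes. The protein stability index was obtained by summing each gate's read frequency weighted by its gate number.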

| Sequence | protein stability index (doa10∆) | protein stability index (pdr5∆) | protein stability index (san1∆) | protein stability index (ubr1∆) |
| --- | --- | --- | --- | --- |
| NDQVEKDAEDETSSDGS [RPN1] | 2.63 ± 0.15 | 2.42 ± 0.096 | 2.04 ± 0.17 | 2.59 ± 0.13 |
| VECAQHCIDYLRKNKLG [SMC4] | 1.44 ± 0.07 | 1.19 ± 0.068 | 1.62 ± 0.1 | 1.36 ± 0.058 |
| RNHKHALHGTAKALAAA [RPL29] | 2.502 ± 0.019 | 2.685 ± 0.017 | 2.523 ± 0.018 | 2.647 ± 0.014 |
| HSDMASKMYNTDKKAFL [PRP8] | 2.91 ± 0.057 | 2.65 ± 0.056 | 2.89 ± 0.051 | 2.98 ± 0.059 |
| MAYTSHLSSKTGLHFGR [QCR10] | 3.08 ± 0.16 | 2.78 ± 0.087 | 2.69 ± 0.089 | 2.76 ± 0.066 |
| KIAGIEGHLAEIRAKEY [SRB2] | 3.36 ± 0.12 | 3.41 ± 0.097 | 3.4 ± 0.071 | 3.31 ± 0.058 |
| TRINGLNSNNSIIGNKN [REC8] | 3.2 ± 0.089 | 3.04 ± 0.072 | 3.21 ± 0.048 | 2.98 ± 0.051 |
| DRVQQDSEDEDSMKDTT [YML031W/NDC1] | 3.25 ± 0.14 | 3.22 ± 0.16 | 3.26 ± 0.091 | 3.25 ± 0.07 |
| PLARNYIKSMDLISKKT [RPR2] | 2.78 ± 0.065 | 3.01 ± 0.063 | 2.77 ± 0.054 | 2.94 ± 0.039 |
| DDIFIRYLTLLSNEFTA [ECM29] | 2.14 ± 0.056 | 1.91 ± 0.051 | 2.44 ± 0.074 | 1.76 ± 0.029 |
| TLKKEWLKEYEDETLRR [YIL149C/MLP2] | 3.12 ± 0.21 | 3.2 ± 0.18 |  | 3.52 ± 0.12 |
| GNPTNISSPIVANSPNK [YDL088C/ASM4] | 1.3 ± 0.13 | 2.06 ± 0.14 |  | 1.82 ± 0.1 |
| TNKISPKDFSPNFTGID [SSN2] | 2.76 ± 0.13 | 1.84 ± 0.11 | 2.9 ± 0.12 | 2.91 ± 0.057 |
| LVQKFGGADQVTRTQQW [SWI1] | 3.08 ± 0.13 | 3.06 ± 0.088 | 2.88 ± 0.13 | 2.78 ± 0.076 |
| LHYDKDYNLRIYCYFLI [SSN8] | 1.28 ± 0.046 | 1.37 ± 0.045 | 1.37 ± 0.078 | 1.53 ± 0.046 |
| PVRALIVQAKEPNLAAQ [ECM29] | 2.14 ± 0.11 | 2.6 ± 0.08 | 2.51 ± 0.092 | 2.64 ± 0.059 |
| GVIDDSFDVAISTACPR [SMC4] | 2.59 ± 0.077 | 3.09 ± 0.046 | 2.45 ± 0.058 | 2.7 ± 0.049 |
| VLAAQSIGEPATQMTLN [RPO21] | 2.69 ± 0.055 | 3 ± 0.051 | 2.87 ± 0.042 | 2.91 ± 0.048 |
| MGGVSALRGMFKDRFKD [FAS2] | 3.56 ± 0.068 | 3.55 ± 0.067 | 3.41 ± 0.059 | 3.54 ± 0.069 |
| YKIPKVMKDIYKVENVT [ESC2] |  | 3.52 ± 0.16 |  |  |
| QMSDKHATVVPPEEFSN [SRB7] | 2.98 ± 0.05 | 2.88 ± 0.056 | 2.71 ± 0.059 | 2.86 ± 0.047 |
| KKVKSASKKSGGDVVKF [SMC4] | 3.09 ± 0.15 | 3.68 ± 0.15 | 2.89 ± 0.21 | 3.12 ± 0.16 |
| ETEAEEDHMLKKIENTM [RPO21] |  | 3.37 ± 0.18 |  | 3.46 ± 0.15 |
| RPSITEAMMLKEEGLQQ [MED1] | 3.41 ± 0.25 | 3.65 ± 0.2 | 3.16 ± 0.061 | 2.94 ± 0.21 |
| QQLAYDLSISALLGDKI [RPN9] | 2.4 ± 0.052 | 2.67 ± 0.058 | 2.47 ± 0.075 | 2.15 ± 0.064 |
| DTTFSDFKEVEDFLHFI [SRB4] | 2.83 ± 0.06 | 2.09 ± 0.05 | 2.23 ± 0.064 | 2.56 ± 0.048 |
| FLWPFKLSNPSGGWGVP [RPL7A] | 3.16 ± 0.077 | 2.85 ± 0.075 | 3.16 ± 0.1 | 3.36 ± 0.14 |

| Sequence | protein stability index (doa10∆) | protein stability index (pdr5∆) | protein stability index (san1∆) | protein stability index (ubr1∆) |
| --- | --- | --- | --- | --- |
| STKSNKAKNPLTHSTPK [RPL8B] | 2.33 ± 0.069 | 2.83 ± 0.059 | 2.94 ± 0.058 | 2.73 ± 0.071 |
| FIRSTNSWFDVTWRTFT [FAS1] | 1.37 ± 0.12 | 1.14 ± 0.13 |  | 1.34 ± 0.15 |
| EIMYTGVSISVSFNSKQ [SMC3] | 1.61 ± 0.089 | 1.99 ± 0.07 | 2.83 ± 0.087 | 2.29 ± 0.1 |
| GSAADTQAIADIVQYHL [PRE3] |  | 3.26 ± 0.19 | 2.88 ± 0.17 | 2.99 ± 0.13 |
| LKERAKNISSQLDSKLM [YGR119C/NUP57] | 1.2 ± 0.2 | 1.46 ± 0.22 | 1.56 ± 0.26 | 1.28 ± 0.13 |
| QTIMKMGPLSNIAQMIP [SRP54] | 2.6 ± 0.081 | 2.67 ± 0.068 | 2.58 ± 0.08 | 2.99 ± 0.07 |
| HPTTIESLREIPYGPDF [SEC65] | 3.06 ± 0.069 | 3.17 ± 0.06 | 3.01 ± 0.058 | 2.99 ± 0.049 |
| DNVIVINHKINNKITQL [SIR3] | 2.08 ± 0.057 | 2.13 ± 0.05 | 2.08 ± 0.053 | 2.2 ± 0.04 |
| LENKADPLVSLMMVEKV [RPT6] | 2.12 ± 0.095 | 2 ± 0.069 | 2.35 ± 0.067 | 2.2 ± 0.099 |
| ESLYDLIEFQPSQGVHY [MED6] | 2.84 ± 0.078 | 2.87 ± 0.061 | 2.91 ± 0.051 | 2.7 ± 0.051 |
| YINSDSVNPAMLPGSSN [RPO31] | 2.6 ± 0.1 | 2.74 ± 0.099 | 2.73 ± 0.15 | 2.83 ± 0.074 |
| QPTIRKDGLKLVGSWKK [RPO21] | 3.52 ± 0.19 |  | 3.3 ± 0.14 |  |
| FYDIRSLLERHIPRLIP [YJL039C/NUP192] | 2.79 ± 0.049 | 2.46 ± 0.046 | 2.2 ± 0.048 | 2.77 ± 0.055 |
| RVFNAKDTTGPKAISNF [YCS4] | 2.9 ± 0.1 | 2.82 ± 0.13 | 3.18 ± 0.11 | 2.9 ± 0.1 |
| KIAYRGVKDCQEGLITT [SSN2] | 2.08 ± 0.23 |  | 2.91 ± 0.22 | 2.7 ± 0.22 |
| NGLGTSHINTNVGDNNS [ARP7] | 3.13 ± 0.12 | 2.77 ± 0.099 | 2.74 ± 0.082 | 3.28 ± 0.11 |
| CRDSDDHKRFIVFHNEF [DIS3] | 3.02 ± 0.1 | 3.26 ± 0.084 | 2.33 ± 0.2 | 3.23 ± 0.065 |
| SAKTRSHNWAAKAKRRH [RPL37B] | 3.42 ± 0.093 | 3.32 ± 0.071 | 3.31 ± 0.059 | 3.41 ± 0.042 |
| YPVHEAHKGQIVLIKGI [SNU114] | 1.52 ± 0.095 | 2.45 ± 0.088 | 1.37 ± 0.15 | 2.87 ± 0.088 |
| GKEVEVLMETKNTQSPQ [SNU114] | 3.19 ± 0.22 | 3.6 ± 0.095 |  | 3.44 ± 0.11 |
| TSSKSSSLSAIIVFGYP [YDL088C/ASM4] | 2.31 ± 0.055 | 2.06 ± 0.048 | 2.71 ± 0.072 | 2.58 ± 0.05 |
| VPLAMGIVSVSDPQMKV [RPN1] | 1.39 ± 0.041 | 1.63 ± 0.054 | 1.43 ± 0.1 | 1.51 ± 0.051 |
| QKYNQIQKQIETIQADL [SMC2] | 2.68 ± 0.047 | 2.57 ± 0.042 | 2.6 ± 0.047 | 2.45 ± 0.031 |
| SKLSEHLNHYILLRYHH [YCG1] | 2.16 ± 0.067 | 1.73 ± 0.059 | 1.82 ± 0.091 | 2.02 ± 0.062 |
| FIPHGLKRRQVIEQCYL [SRB8] | 2.78 ± 0.074 | 2.63 ± 0.08 | 2.46 ± 0.1 | 2.44 ± 0.049 |
| YNPKMIDDRDYVGNKRL [RET1] |  |  |  | 3.49 ± 0.26 |
| GEKIDSNKPIFLFAPEL [SWI1] | 2.62 ± 0.1 | 2.54 ± 0.21 | 2.59 ± 0.21 | 2.91 ± 0.23 |
